Literature values as cited in paper PMC6162179.
pKd: −log10 of the molar value.

Columns and labels:
[1] = target: Thioredoxin (Escherichia coli) [thioredoxin: P0AA25]
[2] = target: gp5 DNA polymerase (Escherichia phage T7) (UniProt P00581)
Sequence of gp5 DNA polymerase (Escherichia phage T7) (P00581 whole entry): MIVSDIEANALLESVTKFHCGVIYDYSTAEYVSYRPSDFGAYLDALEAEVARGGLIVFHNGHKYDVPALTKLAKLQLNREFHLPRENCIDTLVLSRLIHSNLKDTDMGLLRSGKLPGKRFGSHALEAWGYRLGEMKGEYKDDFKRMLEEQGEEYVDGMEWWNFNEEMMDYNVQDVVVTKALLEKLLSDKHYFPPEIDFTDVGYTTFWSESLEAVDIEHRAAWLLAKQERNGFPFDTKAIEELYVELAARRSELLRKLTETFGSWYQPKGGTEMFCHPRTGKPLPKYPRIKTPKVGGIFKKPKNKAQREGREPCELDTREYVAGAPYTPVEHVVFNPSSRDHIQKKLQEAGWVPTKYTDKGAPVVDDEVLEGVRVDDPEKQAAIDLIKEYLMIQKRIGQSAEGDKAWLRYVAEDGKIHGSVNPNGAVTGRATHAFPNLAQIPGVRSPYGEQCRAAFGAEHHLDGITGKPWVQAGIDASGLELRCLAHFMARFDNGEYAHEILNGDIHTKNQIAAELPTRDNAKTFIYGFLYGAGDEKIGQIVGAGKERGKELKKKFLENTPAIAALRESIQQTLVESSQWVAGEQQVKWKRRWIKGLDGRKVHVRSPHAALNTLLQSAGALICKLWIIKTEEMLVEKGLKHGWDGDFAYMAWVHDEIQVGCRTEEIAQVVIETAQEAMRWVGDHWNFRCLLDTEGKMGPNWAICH

Sequence of gp2.5 (P03696 whole entry): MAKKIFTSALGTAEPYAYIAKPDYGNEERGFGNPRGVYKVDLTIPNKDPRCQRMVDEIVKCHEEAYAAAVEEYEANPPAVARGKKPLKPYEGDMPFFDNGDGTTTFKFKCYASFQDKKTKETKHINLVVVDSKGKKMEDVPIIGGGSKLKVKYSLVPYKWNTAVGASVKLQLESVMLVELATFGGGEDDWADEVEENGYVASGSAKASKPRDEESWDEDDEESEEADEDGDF
Sequence of Thioredoxin (Escherichia coli) [thioredoxin: P0AA25] (P0AA25 2-109): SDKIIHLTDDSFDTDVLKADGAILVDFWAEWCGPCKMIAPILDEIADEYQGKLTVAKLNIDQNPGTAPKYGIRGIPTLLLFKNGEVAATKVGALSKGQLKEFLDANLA

gp2.5 (from UniProt P03696)
pKd [1]: 3.30
pKd [2]: 6.00
